# Several values for one entry are separate records, joined by “and”; a condition that tells them apart may be missing. Equal values may be shown once. Numbered stars: 1 amine (or outer) side, 2 acyl side, 3 side chain; on linkers, the order of the positions; unused ones are H or OH. Bridge positions count the residues as written; N and C are the ends. Square brackets hold non-standard residues; d marks the D form. Primed or numbered codes have the meaning given here. * marks the point of attachment. tMeBn(DOTA-PP) = 1,3,5-trimethylbenzylidene, two thioethers to Cys, third CH2 bound to one N of piperazine whose other N bears DOTA, O=C(O)CN1CCN(CC(=O)O)CCN(CC(=O)N2CCN(Cc3cc(C[*:1])cc(C[*:2])c3)CC2)CCN(CC(=O)O)CC1; Ttds″ = 1,13-diamino-4,7,10-trioxatridecan-succinamic acid spacer, O=C(CCC(=O)[*:2])NCCCOCCOCCOCCCN[*:1]; TBMB(SCH2CH2NH-DOTA) = O=C(O)CN1CCN(CC(=O)O)CCN(CC(=O)NCCSCc2cc(C[*:1])cc(C[*:2])c2)CCN(CC(=O)O)CC1; DOTA = O=C(O)CN1CCN(CC(=O)O)CCN(CC(=O)*)CCN(CC(=O)O)CC1; mXylylene = c1cc(C[*:1])cc(C[*:2])c1; Hexanoyl = CCCCCC(=O)*; NH(CH2)5NH2 = NCCCCCN*; GABA = NCCCC(=O)O; βAla = NCCC(=O)O
# B1: Ac-Met-[Cys(3MeBn)-Pro-Pro-Thr-Glu-Phe-Cys]-Asp-His-Phe-Arg-Asp-NH2 (peptide)
# peptide: Ac-MCPPTEFCDHFRD-NH2
# modifications: linker 2-8 via mXylylene
# SMILES: CSCC[C@H](NC(C)=O)C(=O)N[C@H]1CSCc2cccc(c2)CSC[C@@H](C(=O)N[C@@H](CC(=O)O)C(=O)N[C@@H](Cc2c[nH]cn2)C(=O)N[C@@H](Cc2ccccc2)C(=O)N[C@@H](CCCNC(=N)N)C(=O)N[C@@H](CC(=O)O)C(N)=O)NC(=O)[C@H](Cc2ccccc2)NC(=O)[C@H](CCC(=O)O)NC(=O)[C@H]([C@@H](C)O)NC(=O)[C@@H]2CCCN2C(=O)[C@@H]2CCCN2C1=O
# notes: also called 3BP-2975
# B2: Ac-Met-[Cys(3MeBn)-Pro-Pro-Thr-Glu-Phe-Cys]-Asp-His-Ala-Arg-Asp-NH2 (peptide)
# peptide: Ac-MCPPTEFCDHARD-NH2
# modifications: linker 2-8 via mXylylene
# SMILES: CSCC[C@H](NC(C)=O)C(=O)N[C@H]1CSCc2cccc(c2)CSC[C@@H](C(=O)N[C@@H](CC(=O)O)C(=O)N[C@@H](Cc2c[nH]cn2)C(=O)N[C@@H](C)C(=O)N[C@@H](CCCNC(=N)N)C(=O)N[C@@H](CC(=O)O)C(N)=O)NC(=O)[C@H](Cc2ccccc2)NC(=O)[C@H](CCC(=O)O)NC(=O)[C@H]([C@@H](C)O)NC(=O)[C@@H]2CCCN2C(=O)[C@@H]2CCCN2C1=O
# notes: also called 3BP-3196
# B3: Ac-Met-[Cys(3MeBn)-Pro-Pro-Thr-Glu-Phe-Cys]-Asp-His-Phe-Arg-Ala-NH2 (peptide)
# peptide: Ac-MCPPTEFCDHFRA-NH2
# modifications: linker 2-8 via mXylylene
# SMILES: CSCC[C@H](NC(C)=O)C(=O)N[C@H]1CSCc2cccc(c2)CSC[C@@H](C(=O)N[C@@H](CC(=O)O)C(=O)N[C@@H](Cc2c[nH]cn2)C(=O)N[C@@H](Cc2ccccc2)C(=O)N[C@@H](CCCNC(=N)N)C(=O)N[C@@H](C)C(N)=O)NC(=O)[C@H](Cc2ccccc2)NC(=O)[C@H](CCC(=O)O)NC(=O)[C@H]([C@@H](C)O)NC(=O)[C@@H]2CCCN2C(=O)[C@@H]2CCCN2C1=O
# notes: also called 3BP-3198
# B4: Ac-Met-[Cys(3MeBn)-Pro-Pro-Thr-Glu-Phe-Cys]-Asp-Ala-Phe-Arg-Asp-NH2 (peptide)
# peptide: Ac-MCPPTEFCDAFRD-NH2
# modifications: linker 2-8 via mXylylene
# SMILES: CSCC[C@H](NC(C)=O)C(=O)N[C@H]1CSCc2cccc(c2)CSC[C@@H](C(=O)N[C@@H](CC(=O)O)C(=O)N[C@@H](C)C(=O)N[C@@H](Cc2ccccc2)C(=O)N[C@@H](CCCNC(=N)N)C(=O)N[C@@H](CC(=O)O)C(N)=O)NC(=O)[C@H](Cc2ccccc2)NC(=O)[C@H](CCC(=O)O)NC(=O)[C@H]([C@@H](C)O)NC(=O)[C@@H]2CCCN2C(=O)[C@@H]2CCCN2C1=O
# notes: also called 3BP-3195
# B5: Ac-Met-[Cys(3MeBn)-Gly-Pro-Thr-Glu-Phe-Cys]-Asp-His-Phe-Arg-Asp-NH2 (peptide)
# peptide: Ac-MCGPTEFCDHFRD-NH2
# modifications: linker 2-8 via mXylylene
# SMILES: CSCC[C@H](NC(C)=O)C(=O)N[C@H]1CSCc2cccc(c2)CSC[C@@H](C(=O)N[C@@H](CC(=O)O)C(=O)N[C@@H](Cc2c[nH]cn2)C(=O)N[C@@H](Cc2ccccc2)C(=O)N[C@@H](CCCNC(=N)N)C(=O)N[C@@H](CC(=O)O)C(N)=O)NC(=O)[C@H](Cc2ccccc2)NC(=O)[C@H](CCC(=O)O)NC(=O)[C@H]([C@@H](C)O)NC(=O)[C@@H]2CCCN2C(=O)CNC1=O
# notes: also called 3BP-3214
# B6: H-met-[Cys(3MeBn)-Pro-Pro-Thr-Glu-Phe-Cys]-Asp-His-Phe-Arg-Asp-NH2 (peptide)
# peptide: H-[dM]CPPTEFCDHFRD-NH2
# modifications: linker 2-8 via mXylylene
# SMILES: CSCC[C@@H](N)C(=O)N[C@H]1CSCc2cccc(c2)CSC[C@@H](C(=O)N[C@@H](CC(=O)O)C(=O)N[C@@H](Cc2c[nH]cn2)C(=O)N[C@@H](Cc2ccccc2)C(=O)N[C@@H](CCCNC(=N)N)C(=O)N[C@@H](CC(=O)O)C(N)=O)NC(=O)[C@H](Cc2ccccc2)NC(=O)[C@H](CCC(=O)O)NC(=O)[C@H]([C@@H](C)O)NC(=O)[C@@H]2CCCN2C(=O)[C@@H]2CCCN2C1=O
# notes: also called 3BP-2976
# B7: Hex-[Cys(3MeBn)-Pro-Pro-Thr-Glu-Phe-Cys]-Asp-His-Phe-Arg-Asp-NH2 (peptide)
# peptide: Hexanoyl-CPPTEFCDHFRD-NH2
# modifications: linker 1-7 via mXylylene
# SMILES: CCCCCC(=O)N[C@H]1CSCc2cccc(c2)CSC[C@@H](C(=O)N[C@@H](CC(=O)O)C(=O)N[C@@H](Cc2c[nH]cn2)C(=O)N[C@@H](Cc2ccccc2)C(=O)N[C@@H](CCCNC(=N)N)C(=O)N[C@@H](CC(=O)O)C(N)=O)NC(=O)[C@H](Cc2ccccc2)NC(=O)[C@H](CCC(=O)O)NC(=O)[C@H]([C@@H](C)O)NC(=O)[C@@H]2CCCN2C(=O)[C@@H]2CCCN2C1=O
# B8: Hex-[Cys(tMeBn(DOTA-AET))-Pro-Pro-Thr-Gln-Phe-Cys]-Asp-NH2 (peptide)
# peptide: Hexanoyl-CPPTQFCD-NH2
# modifications: linker 1-7 via TBMB(SCH2CH2NH-DOTA)
# SMILES: CCCCCC(=O)N[C@H]1CSCc2cc(CSCCNC(=O)CN3CCN(CC(=O)O)CCN(CC(=O)O)CCN(CC(=O)O)CC3)cc(c2)CSC[C@@H](C(=O)N[C@@H](CC(=O)O)C(N)=O)NC(=O)[C@H](Cc2ccccc2)NC(=O)[C@H](CCC(N)=O)NC(=O)[C@H]([C@@H](C)O)NC(=O)[C@@H]2CCCN2C(=O)[C@@H]2CCCN2C1=O
# notes: also called 3BP-3426
# B9: Hex-[Cys(tMeBn(DOTA-PP))-Pro-Pro-Thr-Gln-Phe-Cys]-Asp-NH2 (peptide)
# peptide: Hexanoyl-CPPTQFCD-NH2
# modifications: linker 1-7 via tMeBn(DOTA-PP)
# SMILES: CCCCCC(=O)N[C@H]1CSCc2cc(cc(CN3CCN(C(=O)CN4CCN(CC(=O)O)CCN(CC(=O)O)CCN(CC(=O)O)CC4)CC3)c2)CSC[C@@H](C(=O)N[C@@H](CC(=O)O)C(N)=O)NC(=O)[C@H](Cc2ccccc2)NC(=O)[C@H](CCC(N)=O)NC(=O)[C@H]([C@@H](C)O)NC(=O)[C@@H]2CCCN2C(=O)[C@@H]2CCCN2C1=O
# B10: Hex-[Cys(3MeBn)-Pro-Pro-Thr-Gln-Phe-Cys]-Asp-Ttds-Ape-NH-DOTA′ (peptide)
# peptide: Hexanoyl-CPPTQFCD[Ttds″]-{NH(CH2)5NH2-DOTA′}
# modifications: linker 1-7 via mXylylene
# notes: also called 3BP-3404
# B11: Hex-[Cys(3MeBn)-Pro-Pro-Thr-Glu-Phe-Cys]-Bal-OH (peptide)
# peptide: Hexanoyl-CPPTEFC[βAla]-OH
# modifications: linker 1-7 via mXylylene
# SMILES: CCCCCC(=O)N[C@H]1CSCc2cccc(c2)CSC[C@@H](C(=O)NCCC(=O)O)NC(=O)[C@H](Cc2ccccc2)NC(=O)[C@H](CCC(=O)O)NC(=O)[C@H]([C@@H](C)O)NC(=O)[C@@H]2CCCN2C(=O)[C@@H]2CCCN2C1=O
# notes: also called 3BP-3371
# B12: Hex-[Cys(3MeBn)-Pro-Pro-Thr-Gln-Phe-Cys]-Asp-Ape-NH-DOTA′ (peptide)
# peptide: Hexanoyl-CPPTQFCD-{NH(CH2)5NH2-DOTA′}
# modifications: linker 1-7 via mXylylene
# notes: also called 3BP-3403
# B13: Hex-[Cys(tMeBn(DOTA-AET))-Pro-Pro-Thr-Gln-Phe-Cys]-Ser-OH (peptide)
# peptide: Hexanoyl-CPPTQFCS-OH
# modifications: linker 1-7 via TBMB(SCH2CH2NH-DOTA)
# SMILES: CCCCCC(=O)N[C@H]1CSCc2cc(CSCCNC(=O)CN3CCN(CC(=O)O)CCN(CC(=O)O)CCN(CC(=O)O)CC3)cc(c2)CSC[C@@H](C(=O)N[C@@H](CO)C(=O)O)NC(=O)[C@H](Cc2ccccc2)NC(=O)[C@H](CCC(N)=O)NC(=O)[C@H]([C@@H](C)O)NC(=O)[C@@H]2CCCN2C(=O)[C@@H]2CCCN2C1=O
# notes: also called 3BP-3658
# B14: Hex-[Cys(tMeBn(DOTA-AET))-Pro-Pro-Thr-Gln-Phe-Cys]-Gly-OH (peptide)
# peptide: Hexanoyl-CPPTQFCG-OH
# modifications: linker 1-7 via TBMB(SCH2CH2NH-DOTA)
# SMILES: CCCCCC(=O)N[C@H]1CSCc2cc(CSCCNC(=O)CN3CCN(CC(=O)O)CCN(CC(=O)O)CCN(CC(=O)O)CC3)cc(c2)CSC[C@@H](C(=O)NCC(=O)O)NC(=O)[C@H](Cc2ccccc2)NC(=O)[C@H](CCC(N)=O)NC(=O)[C@H]([C@@H](C)O)NC(=O)[C@@H]2CCCN2C(=O)[C@@H]2CCCN2C1=O
# notes: also called 3BP-3656
# B15: Hex-[Cys(3MeBn)-Pro-Pro-Thr-Glu-Phe-Cys]-Asp-Gab-Arg-NH2 (peptide)
# peptide: Hexanoyl-CPPTEFCD[GABA]R-NH2
# modifications: linker 1-7 via mXylylene
# SMILES: CCCCCC(=O)N[C@H]1CSCc2cccc(c2)CSC[C@@H](C(=O)N[C@@H](CC(=O)O)C(=O)NCCCC(=O)N[C@@H](CCCNC(=N)N)C(N)=O)NC(=O)[C@H](Cc2ccccc2)NC(=O)[C@H](CCC(=O)O)NC(=O)[C@H]([C@@H](C)O)NC(=O)[C@@H]2CCCN2C(=O)[C@@H]2CCCN2C1=O
# notes: also called 3BP-3300
# B16: Hex-[Cys(3MeBn)-Pro-Pro-Thr-Gln-Phe-Cys]-Asp-Ttds-Lys(DOTA)-NH2 (peptide)
# peptide: Hexanoyl-CPPTQFCD[Ttds″]K(DOTA)-NH2
# modifications: linker 1-7 via mXylylene
# SMILES: CCCCCC(=O)N[C@H]1CSCc2cccc(c2)CSC[C@@H](C(=O)N[C@@H](CC(=O)O)C(=O)NCCCOCCOCCOCCCNC(=O)CCC(=O)N[C@@H](CCCCNC(=O)CN2CCN(CC(=O)O)CCN(CC(=O)O)CCN(CC(=O)O)CC2)C(N)=O)NC(=O)[C@H](Cc2ccccc2)NC(=O)[C@H](CCC(N)=O)NC(=O)[C@H]([C@@H](C)O)NC(=O)[C@@H]2CCCN2C(=O)[C@@H]2CCCN2C1=O
# notes: also called 3BP-3395
# B17: Hex-[Cys(3MeBn)-Pro-Pro-Thr-Glu-Phe-Cys]-Asp-Ttds-Lys(DOTA)-NH2 (peptide)
# peptide: Hexanoyl-CPPTEFCD[Ttds″]K(DOTA)-NH2
# modifications: linker 1-7 via mXylylene
# SMILES: CCCCCC(=O)N[C@H]1CSCc2cccc(c2)CSC[C@@H](C(=O)N[C@@H](CC(=O)O)C(=O)NCCCOCCOCCOCCCNC(=O)CCC(=O)N[C@@H](CCCCNC(=O)CN2CCN(CC(=O)O)CCN(CC(=O)O)CCN(CC(=O)O)CC2)C(N)=O)NC(=O)[C@H](Cc2ccccc2)NC(=O)[C@H](CCC(=O)O)NC(=O)[C@H]([C@@H](C)O)NC(=O)[C@@H]2CCCN2C(=O)[C@@H]2CCCN2C1=O
# notes: also called 3BP-3396
# Biological target: T1, fibroblast activation protein (FAP) on FAP-expressing human WI-38 fibroblasts (human, UniProt Q12884 1-760)
# T1 construct: also called human FAP
# Assay: competitive FACS, WI-38 cells, vs Cy5 tracer m3; A = pIC50 >8.0
row,pIC50 Category (FACS) [pIC50],Binder
1,> 8,B1
2,> 8,B2
3,> 8,B3
4,> 8,B4
5,> 8,B5
6,> 8,B6
7,> 8,B7
8,> 8,B8
9,> 8,B9
10,> 8,B10
11,> 8,B11
12,> 8,B12
13,> 8,B13
14,> 8,B14
15,> 8,B15
16,> 8,B16
17,> 8,B17

# Biological target: Recombinant human FAP (R&D systems, #3715-SE) (human, UniProt Q12884 26-760)
# Assay: cell-based or functional assay
row,pIC50 Category (Activity),Binder
1,> 8 pIC50,B1
2,> 8 pIC50,B2
3,> 8 pIC50,B3
4,7.1 pIC50 and 8 pIC50,B4
5,> 8 pIC50,B5
6,> 8 pIC50,B6
7,> 8 pIC50,B7
8,> 8 pIC50,B8
9,> 8 pIC50,B9
10,> 8 pIC50,B10
11,7.1 pIC50 and 8 pIC50,B11
12,> 8 pIC50,B12
13,> 8 pIC50,B13
14,> 8 pIC50,B14
15,> 8 pIC50,B15
16,> 8 pIC50,B16
17,> 8 pIC50,B17
